In patent US20100184088A1 (ONCOTHERAPY SCIENCE, published 2010):

T1: recombinant GST-fused VEGFR1#1 (codons 800-1000)
T1 chain: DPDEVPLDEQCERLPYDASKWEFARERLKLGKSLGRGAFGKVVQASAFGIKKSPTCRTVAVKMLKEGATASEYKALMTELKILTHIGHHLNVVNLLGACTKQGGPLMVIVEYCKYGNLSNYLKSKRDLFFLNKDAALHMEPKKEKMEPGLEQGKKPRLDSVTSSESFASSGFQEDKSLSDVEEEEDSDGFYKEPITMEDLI

T2: HA-tagged SMYD3 (human, UniProt Q9H7B4 1-428)
T2 construct: also called ZNFN3A1; not shown: HA tag
T2 sequence: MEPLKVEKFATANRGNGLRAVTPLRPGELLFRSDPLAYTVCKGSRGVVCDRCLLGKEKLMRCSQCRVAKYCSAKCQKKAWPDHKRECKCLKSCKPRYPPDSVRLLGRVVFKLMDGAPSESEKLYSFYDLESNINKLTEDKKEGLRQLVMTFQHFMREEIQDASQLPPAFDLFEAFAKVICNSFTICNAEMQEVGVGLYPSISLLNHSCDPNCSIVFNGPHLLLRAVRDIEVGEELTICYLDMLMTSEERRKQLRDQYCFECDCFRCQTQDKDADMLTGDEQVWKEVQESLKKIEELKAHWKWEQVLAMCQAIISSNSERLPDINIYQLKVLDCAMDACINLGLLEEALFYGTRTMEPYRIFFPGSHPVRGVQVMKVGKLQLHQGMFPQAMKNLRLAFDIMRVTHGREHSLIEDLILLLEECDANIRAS

T3: HA-tagged VEGFR1 (human, UniProt P17948 800-1338, limits assumed)
T3 construct: also called HA-VEGFR1; cytoplasmic domain of VEGFR1; not shown: HA tag (pCMV-HA vector)
T3 sequence: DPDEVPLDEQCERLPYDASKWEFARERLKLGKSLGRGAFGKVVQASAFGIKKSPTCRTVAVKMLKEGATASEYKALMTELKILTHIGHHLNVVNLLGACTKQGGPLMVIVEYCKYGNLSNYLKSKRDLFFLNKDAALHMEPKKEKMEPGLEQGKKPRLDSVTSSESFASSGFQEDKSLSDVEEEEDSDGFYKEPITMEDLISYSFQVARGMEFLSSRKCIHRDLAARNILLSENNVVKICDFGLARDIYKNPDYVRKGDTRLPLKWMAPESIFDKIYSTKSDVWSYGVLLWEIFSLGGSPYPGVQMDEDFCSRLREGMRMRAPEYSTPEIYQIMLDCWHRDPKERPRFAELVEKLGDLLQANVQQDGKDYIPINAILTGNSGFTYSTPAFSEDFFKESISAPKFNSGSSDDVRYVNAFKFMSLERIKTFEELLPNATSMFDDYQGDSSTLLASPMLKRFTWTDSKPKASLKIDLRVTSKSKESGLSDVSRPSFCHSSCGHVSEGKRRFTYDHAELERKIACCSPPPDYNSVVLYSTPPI


Legend:
[1] = biological target: T1, recombinant GST-fused VEGFR1#1 (codons …)
HA-tagged SMYD3 = biological target: T2, HA-tagged SMYD3; experiment: co-immunoprecipitation (IP anti-HA, immunoblot anti-Flag), HEK293 cells
Procedure: Extraction of protein, IP, and Western blot analysis were performed according to methods described in the literature (Hamamoto R et al., S Nature cell biology 2004, 6(8): 731-40). Immunoblot analysis was carried out with anti-SMYD3 (Abcam, Cambridge, Mass.), anti-HA (Sigma, St Louis, Mo.), anti-Flag (Sigma), anti-GST (B D Pharmingen, San Diego, Calif.), anti-beta-actin (Sigma), or anti-phospho-Tyrosine (PY20; Sigma) antibodies. HRP-conjugated second antibody was used for the ECL Detection System (Amersham Biosciences, Piscataway, N.J.). Recombinant histone H3 and VEGFR1 (3108) were purchased from Upstate Biotechnology (Lake Placid, N.Y.) and Calbiochem (San Diego, Calif.), respectively.
Since VEGFR1 was methylated by SMYD3, the inventors investigated whether SMYD3 interacts with VEGFR1. The present inventors expressed Flag-tagged cytoplasmic regions of VEGFR1 together with HA-tagged SMYD3 in HEK293 cells. Immunoprecipitation with anti-HA antibody, and subsequent immunoblot analysis with anti-Flag antibody disclosed that SMYD3 associates with VEGFR1#1 (codons 800-1000) but not VEGFR1#2 or VEGFR1#3 (FIG. 3a). Consistently, IP with anti-Flag antibody and subsequent immunoblot analysis with anti-HA antibody corroborated the interaction between SMYD3 and VEGFR1#1 (FIG. 3a). […]

HA-tagged VEGFR1 = biological target: T3, HA-tagged VEGFR1; experiment: co-immunoprecipitation (anti-HA or anti-Flag IP, western blot), HEK293 cells
Description: FIG. 3 depicts the interaction between SMYD3 and VEGFR1. Part a depicts the interaction between SMYD3 and VEGFR1, examined by a co-immunoprecipitation assay using extract from HEK293 cells expressing HA-tagged SMYD3 and different regions of Flag-tagged VEGFR1 (VEGFR1#1, #2, and #3). Part b depicts the interaction of endogenous SMYD3 with VEGFR1. Whole cell extracts from SNU423, SW480, and MCF7 cells expressing both SMYD3 and VEGFR1 were precipitated with anti-SMYD3 antibody. The precipitants were immunoblotted with anti-VEGFR-1 antibody (upper panel) or anti-SMYD3 antibody (lower panel). Part c depicts the association of VEGFR1 with the SET domain of SMYD3. Wild type or deleted forms of Flag-tagged SMYD3 (N-20, delta 2, or delta 3) were co-expressed with HA-tagged VEGFR1 in HEK293 cells. IP was performed with either anti-HA or anti-Flag antibody, and the precipitants were analyzed by western blot analysis with anti-Flag (upper panel) or anti-HA (lower panel) antibody. Part d depicts the interaction of the cytoplasmic region of VEGFR1 with the SET domain of SMYD3 in vivo. Flag-tagged wild type or the SET domain of SMYD3 was co-expressed with HA-tagged VEGFR1 in HEK293 cells. Extracts from the cells were precipitated with anti-Flag (upper panel) or anti-HA (lower panel) antibodies, and the precipitants were analyzed by western blot analysis with anti-HA antibody. […]

| Binder | binding result (HA-tagged SMYD3) | other results |
| --- | --- | --- |
| Flag-tagged wild-type SMYD3 (p3XFLAG-CMV-SMYD3) (protein) MEPLKVEKFATANRGNGLRAVTPLRPGELLFRSDPLAYTVCKGSRGVVCDRCLLGKEKLMRCSQCRVAKYCSAKCQKKAWPDHKRECKCLKSCKPRYPPDSVRLLGRVVFKLMDGAPSESEKLYSFYDLESNINKLTEDKKEGLRQLVMTFQHFMREEIQDASQLPPAFDLFEAFAKVICNSFTICNAEMQEVGVGLYPSISLLNHSCDPNCSIVFNGPHLLLRAVRDIEVGEELTICYLDMLMTSEERRKQLRDQYCFECDCFRCQTQDKDADMLTGDEQVWKEVQESLKKIEELKAHWKWEQVLAMCQAIISSNSERLPDINIYQLKVLDCAMDACINLGLLEEALFYGTRTMEPYRIFFPGSHPVRGVQVMKVGKLQLHQGMFPQAMKNLRLAFDIMRVTHGREHSLIEDLILLLEECDANIRAS |  | in vitro MTase assay, methylation compared to recombinant histone H3 [1]: Approximately three-fold higher methylation of VEGFR1#1 was detected as compared to recombinant histone H3 in vitro (data not shown) |
| Flag-tagged VEGFR1#2 (codons 1000-1200) (receptor, Cytoplasmic fragment of VEGFR1 expressed in HEK293 cells; also called flag-VEGFR1#2; not shown: Flag tag (3xFlag vector)) ISYSFQVARGMEFLSSRKCIHRDLAARNILLSENNVVKICDFGLARDIYKNPDYVRKGDTRLPLKWMAPESIFDKIYSTKSDVWSYGVLLWEIFSLGGSPYPGVQMDEDFCSRLREGMRMRAPEYSTPEIYQIMLDCWHRDPKERPRFAELVEKLGDLLQANVQQDGKDYIPINAILTGNSGFTYSTPAFSEDFFKESISA | no binding |  |
| Flag-tagged VEGFR1#3 (codons 1200-1338) (receptor, Cytoplasmic fragment of VEGFR1 expressed in HEK293 cells; also called flag-VEGFR1#3; not shown: Flag tag (3xFlag vector)) APKFNSGSSDDVRYVNAFKFMSLERIKTFEELLPNATSMFDDYQGDSSTLLASPMLKRFTWTDSKPKASLKIDLRVTSKSKESGLSDVSRPSFCHSSCGHVSEGKRRFTYDHAELERKIACCSPPPDYNSVVLYSTPPI | no binding |  |
| Flag-tagged SMYD3-delta 3 (codons 250-428) (enzyme, Deleted form of SMYD3 lacking the SET domain; also called flag-SMYD3-D3; not shown: Flag tag) RKQLRDQYCFECDCFRCQTQDKDADMLTGDEQVWKEVQESLKKIEELKAHWKWEQVLAMCQAIISSNSERLPDINIYQLKVLDCAMDACINLGLLEEALFYGTRTMEPYRIFFPGSHPVRGVQVMKVGKLQLHQGMFPQAMKNLRLAFDIMRVTHGREHSLIEDLILLLEECDANIRAS |  | binding result (HA-tagged VEGFR1): no binding |
